Assay results: patent US20100260765A1 (AstraZeneca / MedImmune, published 2010)
Residue numbers refer to the chain shown, from its start.

B1: anti-KDR monoclonal antibody 24C9 (antibody, V domains shown)
VH: EVQLVESGGGLVKPGGSLRLSCAASGFTFSTYSMNWVRQAPGKGLEWVSFISGRSSYIYYADSVKGRFTISRDNAKNSLYLQMNSLRAEDTAVYYCSKDDWFEELWGQGTLVTVSS
VL: DIQMTQSPSSLSASVGDRVTITCRASQGIRNDLGWYQQKPGKAPKRLIYATFSLQSGVPSRFSGSGSGTEFTLTISSLQPEDFATYYCLQHNRYPWTFGQGTKVEIK
notes: Fully human mAb from XenoMouse (IgG2 or IgG4 strain); hybridoma supernatant
B2: anti-KDR monoclonal antibody 1G6 (antibody, V domains shown)
VH: EVQLLESGGGLVQPGGSLRLSCAASGFTFSSYAMSWVRQAPGKGLEWVSAISGGGGNTYYADSVKGRFTISRDNSKNTLYLQMNSLRAEDTAVYYCSKVATDYWGQGTLVTVSS
VL: QPVLTQSSSASASLGSSVKLTCTLSSGHSSYIIAWHQQQPGKAPRYLMKLEGSGSYNKGSGVPDRFSGSSSGADRYLTISNLQFEDEADYYCETWDSYTVVFGGGTKLTVL
notes: Fully human mAb from XenoMouse (IgG2 or IgG4 strain); tested here as hybridoma supernatant
B3: anti-KDR monoclonal antibody 32B2 (antibody, V domains shown)
VH: EVQLLESGGGLVQPGGSLRLSCAASGFTFSNYAMSWVRQAPGKGLDWVSAISGRGGSTYYADSVKGRFTISRDNSKNTLFLLMNSLRAEDTAVYYCAKASGDDWGQGTLVTVSS
VL: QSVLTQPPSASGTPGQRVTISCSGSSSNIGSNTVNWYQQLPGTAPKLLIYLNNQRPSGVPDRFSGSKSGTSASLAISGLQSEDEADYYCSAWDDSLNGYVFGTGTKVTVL
notes: as for B1
B4: anti-KDR monoclonal antibody 29A11 (antibody, V domains shown)
VH: B3 VH with S35N, D46E, R54G, S57N, F80Y, L82Q, S85R
VL: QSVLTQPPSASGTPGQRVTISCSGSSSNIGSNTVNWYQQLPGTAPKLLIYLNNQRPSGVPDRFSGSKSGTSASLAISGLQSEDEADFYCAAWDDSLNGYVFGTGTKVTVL
notes: as for B1
B5: anti-KDR monoclonal antibody 30E3 (antibody, V domains shown)
VH: B3 VH with M34L, D46E, R54S, G56R, S57N, I70L, L82Q, D103N
VL: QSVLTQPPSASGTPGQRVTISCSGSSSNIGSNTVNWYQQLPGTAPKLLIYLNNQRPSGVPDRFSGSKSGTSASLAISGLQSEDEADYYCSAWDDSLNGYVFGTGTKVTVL
notes: Fully human mAb from XenoMouse (IgG2 or IgG4 strain); hybridoma supernatant; also called 30E3.1; 30E3.2

Target: T1, human KDR (VEGFR2) on cells (human, UniProt P35968 20-1356)
T1 sequence (P35968 20-1356): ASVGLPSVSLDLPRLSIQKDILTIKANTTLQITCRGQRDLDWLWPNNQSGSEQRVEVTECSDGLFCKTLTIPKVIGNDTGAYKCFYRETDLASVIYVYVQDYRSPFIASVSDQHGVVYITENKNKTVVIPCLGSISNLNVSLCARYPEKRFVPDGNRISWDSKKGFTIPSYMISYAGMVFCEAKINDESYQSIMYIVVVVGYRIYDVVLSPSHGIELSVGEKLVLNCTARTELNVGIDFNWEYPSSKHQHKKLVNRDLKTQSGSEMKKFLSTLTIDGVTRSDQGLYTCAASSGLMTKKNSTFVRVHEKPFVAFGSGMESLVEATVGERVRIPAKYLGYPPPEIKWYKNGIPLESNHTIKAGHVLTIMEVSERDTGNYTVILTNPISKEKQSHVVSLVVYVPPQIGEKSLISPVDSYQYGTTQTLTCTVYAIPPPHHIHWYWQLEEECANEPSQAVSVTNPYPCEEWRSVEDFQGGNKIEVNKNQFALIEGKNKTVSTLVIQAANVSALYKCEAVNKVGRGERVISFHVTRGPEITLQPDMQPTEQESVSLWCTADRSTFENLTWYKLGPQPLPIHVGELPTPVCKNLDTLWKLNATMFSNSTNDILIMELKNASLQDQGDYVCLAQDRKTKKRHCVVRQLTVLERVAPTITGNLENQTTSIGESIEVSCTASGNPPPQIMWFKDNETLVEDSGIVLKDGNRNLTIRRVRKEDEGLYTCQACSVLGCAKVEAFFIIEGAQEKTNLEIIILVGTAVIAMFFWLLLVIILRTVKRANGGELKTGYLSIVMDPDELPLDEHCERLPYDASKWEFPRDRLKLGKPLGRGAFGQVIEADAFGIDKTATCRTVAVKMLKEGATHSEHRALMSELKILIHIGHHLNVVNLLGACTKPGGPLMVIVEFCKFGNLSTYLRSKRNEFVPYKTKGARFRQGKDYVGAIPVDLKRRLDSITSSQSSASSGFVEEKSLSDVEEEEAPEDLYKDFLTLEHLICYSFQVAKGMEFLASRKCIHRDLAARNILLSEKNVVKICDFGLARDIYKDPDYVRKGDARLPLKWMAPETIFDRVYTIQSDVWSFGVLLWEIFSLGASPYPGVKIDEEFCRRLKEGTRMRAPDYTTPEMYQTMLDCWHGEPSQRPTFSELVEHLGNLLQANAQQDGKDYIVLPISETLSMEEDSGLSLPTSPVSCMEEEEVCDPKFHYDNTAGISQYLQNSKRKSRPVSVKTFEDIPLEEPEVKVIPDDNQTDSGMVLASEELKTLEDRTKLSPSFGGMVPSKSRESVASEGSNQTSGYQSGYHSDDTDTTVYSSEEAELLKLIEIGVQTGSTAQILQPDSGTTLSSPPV
Experiment: cell-based or functional assay

Going from B1 to B2, the “% Inhibition of VEGF-E-mediated pTyr Activity” value falls from 51% to 24%.

B3 and B4 are the same in “% Inhibition of VEGF-E-mediated pTyr Activity” value: 15% for the first, 15% for the second.

With B5 the “% Inhibition of VEGF-E-mediated pTyr Activity” value was 19%.

Target: T2, soluble KDR (VEGF Receptor 2 D1-7, Cat. #676490, Calbiochem) (human, UniProt P35968 20-764)
T2 construct: extracellular domain; Bought reagent; also called soluble human KDR; immobilized soluble KDR
T2 sequence (P35968 20-764): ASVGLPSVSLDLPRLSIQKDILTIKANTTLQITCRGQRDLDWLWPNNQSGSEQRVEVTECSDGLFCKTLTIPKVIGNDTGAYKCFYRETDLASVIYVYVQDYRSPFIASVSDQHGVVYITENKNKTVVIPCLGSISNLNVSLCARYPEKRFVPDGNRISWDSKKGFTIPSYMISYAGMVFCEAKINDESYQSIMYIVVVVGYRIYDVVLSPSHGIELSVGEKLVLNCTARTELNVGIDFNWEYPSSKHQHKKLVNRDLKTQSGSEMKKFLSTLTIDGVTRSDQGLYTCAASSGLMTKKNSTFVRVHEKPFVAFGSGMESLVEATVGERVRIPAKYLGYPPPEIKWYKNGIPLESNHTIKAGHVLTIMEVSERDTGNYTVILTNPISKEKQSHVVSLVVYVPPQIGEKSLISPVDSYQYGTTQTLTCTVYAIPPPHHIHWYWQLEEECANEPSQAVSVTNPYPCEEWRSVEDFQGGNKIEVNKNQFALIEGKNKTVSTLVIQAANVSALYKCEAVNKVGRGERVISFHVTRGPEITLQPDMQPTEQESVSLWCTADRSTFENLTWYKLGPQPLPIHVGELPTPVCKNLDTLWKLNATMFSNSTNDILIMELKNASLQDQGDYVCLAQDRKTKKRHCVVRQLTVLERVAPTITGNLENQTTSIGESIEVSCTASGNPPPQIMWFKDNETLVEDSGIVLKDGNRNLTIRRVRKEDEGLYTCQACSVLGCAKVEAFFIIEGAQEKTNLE
Experiment: ELISA, plate-coated soluble KDR 250 ng/mL, hybridoma supernatant 1:5
Experimental: To screen by binding to immobilized soluble KDR, plates were coated with KDR (Calbiochem) at 250 ng/mL overnight at 4° C. After blocking and washing the coated plates, the candidate hybridoma supernatants (at 1:5 dilution) were transferred to the plates and incubated for one hour at room temperature. The plates were then washed and incubated with secondary antibody (at 1:4000 dilution) for one hour at room temperature.

Going from B1 to B2, the “KDR OD(450 nm)” value rises from 0.55 OD450 to 6 OD450.

Compared with B3, B4 is higher in “KDR OD(450 nm)” value: 1.11 OD450 for the first, 3.53 OD450 for the second.

For B5, the “KDR OD(450 nm)” value was 4.18 OD450.

Target: T1, human KDR (VEGFR2) on cells
Experiment: FACS on HUVEC, hybridoma supernatant 1:50
Experimental: HUVECs were seeded at 15,000 cells/well and incubated with 100 μL of sample supernatant (at 1:50 dilution) for one hour at 4° C. The positive control was goat anti-KDR antibody (R&D Systems, Inc.), and negative controls included irrelevant hybridoma supernatants at the same dilution. The cells were then washed and incubated with Cy5-conjugated goat anti-human antibody at 5 μg/mL and 7-Amino-Actinomycin D (7AAD) at 5 μg/mL for 15 minutes at 4° C. Bound KDR was detected using FACS analysis.

Going from B1 to B2, the “FACS Geometric Mean” value falls from 33 to 32.

First: B3
Second: B4
The “FACS Geometric Mean” value of the first is lower: 26 for the first, 31 for the second.

With B5 the “FACS Geometric Mean” value was 36.

Target: T1, human KDR (VEGFR2) on cells
Experiment: cell-based or functional assay
Remark: another data set of the same source

Going from B1 to B2, the “HUVEC survival (n = 1) 1:10 dilution of supernatant (RLU)” value (“HUVEC survival (n = 1) 1:10 dilution” for short) rises from 14600 RLU to 47800 RLU.

Compared with B3, B4 is higher in “HUVEC survival (n = 1) 1:10 dilution” value: 19300 RLU for the first, 34600 RLU for the second.

For B5, the “HUVEC survival (n = 1) 1:10 dilution” value was 37500 RLU.

First: B1
Second: B2
The “HUVEC survival (n = 2) 1:20 dilution of supernatant (RLU)” value (shortened to “HUVEC survival (n = 2) 1:20 dilution”) of the first is lower: 9180 RLU for the first, 10200 RLU for the second.

First: B3
Second: B4
The “HUVEC survival (n = 2) 1:20 dilution” value of the first is lower: 400 RLU for the first, 27700 RLU for the second.

For B5, the “HUVEC survival (n = 2) 1:20 dilution” value was 30400 RLU.

Target: T3, mouse KDR (Flk-1)/Fc (Cat. #443-KD/CF, R&D Systems) (mouse, UniProt P35918 20-762)
T3 construct: Bought reagent; also called mouse VEGFR2; KDR mouse ortholog; Fc part of the bought chimera not given
T3 sequence (P35918 20-762): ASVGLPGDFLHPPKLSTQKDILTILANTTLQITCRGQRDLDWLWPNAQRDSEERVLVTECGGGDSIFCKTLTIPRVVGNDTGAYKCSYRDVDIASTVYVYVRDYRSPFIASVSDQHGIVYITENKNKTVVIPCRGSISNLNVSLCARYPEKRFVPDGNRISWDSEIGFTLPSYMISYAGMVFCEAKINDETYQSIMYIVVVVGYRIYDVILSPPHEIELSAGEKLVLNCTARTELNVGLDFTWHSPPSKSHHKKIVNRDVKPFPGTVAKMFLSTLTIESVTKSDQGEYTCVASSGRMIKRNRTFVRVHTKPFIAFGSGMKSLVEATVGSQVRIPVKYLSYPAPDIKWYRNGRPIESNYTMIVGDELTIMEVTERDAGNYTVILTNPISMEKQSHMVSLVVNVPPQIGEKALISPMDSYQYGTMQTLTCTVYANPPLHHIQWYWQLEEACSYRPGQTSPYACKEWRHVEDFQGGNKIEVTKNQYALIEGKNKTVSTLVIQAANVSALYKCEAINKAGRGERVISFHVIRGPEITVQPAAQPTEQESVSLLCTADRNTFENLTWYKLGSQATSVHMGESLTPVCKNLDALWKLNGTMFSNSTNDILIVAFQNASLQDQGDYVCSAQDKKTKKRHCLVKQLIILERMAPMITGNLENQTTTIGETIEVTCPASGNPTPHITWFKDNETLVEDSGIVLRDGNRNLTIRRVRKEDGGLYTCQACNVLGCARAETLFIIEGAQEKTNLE
Experiment: ELISA, plate-coated Flk-1/Fc 500 ng/mL, hybridoma supernatant 1:5
Experimental: The cross-reactivity of antibodies in the hybridoma supernatant was tested against KDR mouse ortholog (mouse VEGFR2, or Flk-1) and human VEGFR1 (Flt-1). Cross-reactivity was measured using an ELISA based assay.
After washing and blocking the plates, the antibody-containing supernatants were added (at 1:5 dilution) into the coated wells and incubated for one hour at room temperature. The plates were then incubated with mouse anti-human IgG 2, 3 and 4 and subsequently with goat anti-mouse IgG Fc POD, to detect and measure bound antibodies.

First: B1
Second: B2
The “OD (450 nm)” value of the first is higher: 0.098 OD450 for the first, 0.055 OD450 for the second.

Target: T1, human KDR (VEGFR2) on cells
Experiment: cell-based or functional assay
Remark: another data set of the same source

Compared with B1, B2 is higher in “% Inhibition of VEGF165-mediated pTyr Activity, Average” value (“% Inhibition … Average” below): 46% for the first, 71% for the second.

First: B3
Second: B4
The “% Inhibition … Average” value of the first is lower: 77% for the first, 78% for the second.

For B5, the “% Inhibition … Average” value was 71%.

Going from B1 to B2, the “% Inhibition of VEGF165-mediated pTyr Activity, n = 1” value (“% Inhibition … n = 1” below) rises from 55% to 89%.

Going from B3 to B4, the “% Inhibition … n = 1” value rises from 91% to 96%.

For B5, the “% Inhibition … n = 1” value was 89%.

Compared with B1, B2 is higher in “% Inhibition of VEGF165-mediated pTyr Activity, n = 2” value (from here on “% Inhibition … n = 2”): 45% for the first, 67% for the second.

Compared with B3, B4 is lower in “% Inhibition … n = 2” value: 75% for the first, 72% for the second.

With B5 the “% Inhibition … n = 2” value was 67%.

First: B1
Second: B2
The “% Inhibition of VEGF165-mediated pTyr Activity, n = 3” value (shortened to “% Inhibition … n = 3”) of the first is lower: 38% for the first, 58% for the second.

B3 and B4 are the same in “% Inhibition … n = 3” value: 66% for the first, 66% for the second.

For B5, the “% Inhibition … n = 3” value was 58%.
